# Assay results taken from the supplement of paper PMC9112550, “Optimization of the antimicrobial peptide Bac7 by deep mutational scanning” (BMC Biology, 2022).
# System: Escherichia coli TOP10
# Assay: shrunken log2 fold change of peptide-encoding DNA abundance (4.5 h post-induction vs induction); higher = less antimicrobial activity (less host growth inhibition)
# Conditions: time post-induction: 4.5 h; library: site-saturation at positions 5, 18, 19, 20
# 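Further: peptides expressed intracellularly from a pBAD plasmid library in pooled LB shake-flask culture, induced with 0.3% L-arabinose, DNA abundance read by NGS, three biological replicates, DESeq2 with apeglm shrinkage.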
row,Sequence,shrunken log2 fold change
1,RRIRIRPPRLPRPRPRPTGTPRP,-0.109
2,RRIRLRPPRLPRPRPRPYDLPRP,-0.0724
3,RRIRARPPRLPRPRPRPPKEPRP,0.818
4,RRIRVRPPRLPRPRPRPDNWPRP,-0.343
5,RRIRCRPPRLPRPRPRPHYTPRP,-0.311
6,RRIRERPPRLPRPRPRPTVEPRP,-0.0686
7,RRIRHRPPRLPRPRPRPTNVPRP,-0.558
8,RRIRSRPPRLPRPRPRPTCRPRP,-0.0471
9,RRIRSRPPRLPRPRPRPANCPRP,-0.411
10,RRIRGRPPRLPRPRPRPHPTPRP,0.973
11,RRIRNRPPRLPRPRPRPTLWPRP,0.326
12,RRIRLRPPRLPRPRPRPINEPRP,-0.0016
13,RRIRMRPPRLPRPRPRPTDCPRP,-0.0353
14,RRIRMRPPRLPRPRPRPRQEPRP,1.13
15,RRIRSRPPRLPRPRPRPRMPPRP,0.0543
16,RRIRDRPPRLPRPRPRPRDDPRP,-0.0224
17,RRIRWRPPRLPRPRPRPCESPRP,-0.0177
18,RRIRVRPPRLPRPRPRPHALPRP,-0.129
19,RRIRRRPPRLPRPRPRPVCLPRP,0.149
20,RRIRRRPPRLPRPRPRPWSPPRP,0.186
21,RRIRMRPPRLPRPRPRPREKPRP,1.19
22,RRIRNRPPRLPRPRPRPVNAPRP,0.16
23,RRIRDRPPRLPRPRPRPIMIPRP,-0.408
24,RRIRMRPPRLPRPRPRPHKQPRP,0.0796
25,RRIRTRPPRLPRPRPRPFTDPRP,0.00943

row,Sequence,shrunken log2 fold change
1,RRIRPRPPRLPRPRPRPSDRPRP,-0.00705
2,RRIRWRPPRLPRPRPRPWGHPRP,-0.404
3,RRIRNRPPRLPRPRPRPDVRPRP,-0.104
4,RRIRQRPPRLPRPRPRPNQGPRP,0.084
5,RRIRERPPRLPRPRPRPARVPRP,-0.505
6,RRIRVRPPRLPRPRPRPVCIPRP,-0.0826
7,RRIRARPPRLPRPRPRPSKHPRP,-0.11
8,RRIRQRPPRLPRPRPRPKYDPRP,-0.165
9,RRIRLRPPRLPRPRPRPPLFPRP,0.412
10,RRIRERPPRLPRPRPRPQWNPRP,-0.33
11,RRIRDRPPRLPRPRPRPMHEPRP,0.0698
12,RRIRFRPPRLPRPRPRPAMSPRP,-0.302
13,RRIRWRPPRLPRPRPRPMHKPRP,0.219
14,RRIRFRPPRLPRPRPRPEAQPRP,0.383
15,RRIRFRPPRLPRPRPRPNCVPRP,-0.321
16,RRIRPRPPRLPRPRPRPMMAPRP,0.0466
17,RRIRWRPPRLPRPRPRPTHSPRP,0.331
18,RRIRQRPPRLPRPRPRPMPRPRP,0.0657
19,RRIRERPPRLPRPRPRPDCPPRP,-0.559
20,RRIRGRPPRLPRPRPRPTNDPRP,0.564
21,RRIRMRPPRLPRPRPRPKRKPRP,2.32
22,RRIRERPPRLPRPRPRPQMQPRP,-0.173
23,RRIRGRPPRLPRPRPRPCSNPRP,0.275
24,RRIRSRPPRLPRPRPRPQCCPRP,-0.312
25,RRIRCRPPRLPRPRPRPNGQPRP,-0.0579

row,Sequence,shrunken log2 fold change
1,RRIRRRPPRLPRPRPRPGPPPRP,1.93
2,RRIRNRPPRLPRPRPRPADTPRP,0.124
3,RRIRSRPPRLPRPRPRPRIAPRP,0.174
4,RRIRDRPPRLPRPRPRPDYCPRP,-0.045
5,RRIRMRPPRLPRPRPRPKVKPRP,0.614
6,RRIRERPPRLPRPRPRPPFTPRP,1.17
7,RRIRLRPPRLPRPRPRPEGNPRP,-0.149
8,RRIRCRPPRLPRPRPRPEQEPRP,-0.0332
9,RRIRIRPPRLPRPRPRPLQAPRP,0.0546
10,RRIRNRPPRLPRPRPRPLGPPRP,0.0324
11,RRIRNRPPRLPRPRPRPRFTPRP,-0.286
12,RRIRNRPPRLPRPRPRPFDMPRP,-0.0725
13,RRIRARPPRLPRPRPRPCNSPRP,-0.0983
14,RRIRWRPPRLPRPRPRPNPDPRP,0.167
15,RRIRMRPPRLPRPRPRPAWDPRP,0.869
16,RRIRLRPPRLPRPRPRPVAEPRP,0.396
17,RRIRYRPPRLPRPRPRPDFVPRP,-0.205
18,RRIRMRPPRLPRPRPRPFWDPRP,0.359
19,RRIRVRPPRLPRPRPRPKVSPRP,-0.0522
20,RRIRSRPPRLPRPRPRPTPCPRP,0.254
21,RRIRMRPPRLPRPRPRPDAMPRP,2.44
22,RRIRCRPPRLPRPRPRPMWLPRP,-0.235
23,RRIRQRPPRLPRPRPRPAGFPRP,0.266
24,RRIRERPPRLPRPRPRPGICPRP,-0.0398
25,RRIRTRPPRLPRPRPRPSGDPRP,-0.221

row,Sequence,shrunken log2 fold change
1,RRIRVRPPRLPRPRPRPWVNPRP,0.0119
2,RRIRYRPPRLPRPRPRPRHYPRP,-0.974
3,RRIRRRPPRLPRPRPRPDENPRP,0.118
4,RRIRLRPPRLPRPRPRPQTIPRP,-0.234
5,RRIRMRPPRLPRPRPRPWIKPRP,0.101
6,RRIRYRPPRLPRPRPRPVKFPRP,-0.133
7,RRIRPRPPRLPRPRPRPIYAPRP,-0.0839
8,RRIRCRPPRLPRPRPRPVSHPRP,-0.0571
9,RRIRARPPRLPRPRPRPFLYPRP,-0.0961
10,RRIRLRPPRLPRPRPRPEPPPRP,0.53
11,RRIRERPPRLPRPRPRPQCTPRP,-0.012
12,RRIRLRPPRLPRPRPRPWEEPRP,-0.0678
13,RRIRGRPPRLPRPRPRPDWKPRP,0.000125
14,RRIRPRPPRLPRPRPRPDLWPRP,0.344
15,RRIRYRPPRLPRPRPRPDDWPRP,-0.437
16,RRIRNRPPRLPRPRPRPCSSPRP,-0.0135
17,RRIRYRPPRLPRPRPRPDRVPRP,-0.234
18,RRIRMRPPRLPRPRPRPHSAPRP,0.283
19,RRIRFRPPRLPRPRPRPYKYPRP,-0.907
20,RRIRERPPRLPRPRPRPAVTPRP,-0.13
21,RRIRIRPPRLPRPRPRPQEFPRP,0.0204
22,RRIRRRPPRLPRPRPRPFLFPRP,0.0785
23,RRIRARPPRLPRPRPRPDQQPRP,-0.0359
24,RRIRKRPPRLPRPRPRPFNEPRP,0.0442
25,RRIRVRPPRLPRPRPRPCDYPRP,-0.845

row,Sequence,shrunken log2 fold change
1,RRIRWRPPRLPRPRPRPQKCPRP,-0.382
2,RRIRARPPRLPRPRPRPDIQPRP,-0.149
3,RRIRQRPPRLPRPRPRPNCGPRP,0.0184
4,RRIRARPPRLPRPRPRPKIFPRP,-0.0226
5,RRIRKRPPRLPRPRPRPQQQPRP,-0.0131
6,RRIRPRPPRLPRPRPRPMCDPRP,0.164
7,RRIRNRPPRLPRPRPRPDHMPRP,-0.00141
8,RRIRERPPRLPRPRPRPACDPRP,0.0619
9,RRIRIRPPRLPRPRPRPRVGPRP,0.334
10,RRIRMRPPRLPRPRPRPRDVPRP,0.372
11,RRIRARPPRLPRPRPRPDMYPRP,-0.0823
12,RRIRERPPRLPRPRPRPYKSPRP,-0.0824
13,RRIRCRPPRLPRPRPRPDQAPRP,0.288
14,RRIRERPPRLPRPRPRPMGWPRP,-0.218
15,RRIRSRPPRLPRPRPRPHHYPRP,-0.998
16,RRIRMRPPRLPRPRPRPDTSPRP,1.47
17,RRIRCRPPRLPRPRPRPLFMPRP,-0.368
18,RRIRQRPPRLPRPRPRPVKRPRP,0.103
19,RRIRARPPRLPRPRPRPVATPRP,0.982
20,RRIRQRPPRLPRPRPRPAGNPRP,-0.0449
21,RRIRSRPPRLPRPRPRPCDNPRP,-0.165
22,RRIRARPPRLPRPRPRPMTVPRP,-0.0938
23,RRIRGRPPRLPRPRPRPRNLPRP,-0.0805
24,RRIRFRPPRLPRPRPRPNRGPRP,0.149
25,RRIRGRPPRLPRPRPRPQRRPRP,0.565

row,Sequence,shrunken log2 fold change
1,RRIRPRPPRLPRPRPRPRCPPRP,0.208
2,RRIRDRPPRLPRPRPRPIIVPRP,0.0216
3,RRIRKRPPRLPRPRPRPRKYPRP,-0.211
4,RRIRCRPPRLPRPRPRPVNQPRP,-0.174
5,RRIRARPPRLPRPRPRPIEDPRP,-0.0663
6,RRIRFRPPRLPRPRPRPPDIPRP,-0.329
7,RRIRMRPPRLPRPRPRPSKQPRP,0.495
8,RRIRLRPPRLPRPRPRPSHWPRP,-0.0446
9,RRIRLRPPRLPRPRPRPREDPRP,0.327
10,RRIRPRPPRLPRPRPRPEGMPRP,0.305
11,RRIRERPPRLPRPRPRPYNYPRP,-0.519
12,RRIRPRPPRLPRPRPRPCKMPRP,-0.223
13,RRIRTRPPRLPRPRPRPPMTPRP,0.172
14,RRIRYRPPRLPRPRPRPYMRPRP,-1.01
15,RRIRRRPPRLPRPRPRPFYAPRP,-0.0129
16,RRIRARPPRLPRPRPRPPRIPRP,0.827
17,RRIRTRPPRLPRPRPRPVYSPRP,-0.239
18,RRIRSRPPRLPRPRPRPNYNPRP,-0.904
19,RRIRGRPPRLPRPRPRPYDCPRP,-0.147
20,RRIRDRPPRLPRPRPRPTYMPRP,-0.248
21,RRIRKRPPRLPRPRPRPAMGPRP,0.14
22,RRIRFRPPRLPRPRPRPHEPPRP,-0.164
23,RRIRHRPPRLPRPRPRPWVTPRP,0.0283
24,RRIRSRPPRLPRPRPRPMDGPRP,-0.095
25,RRIRDRPPRLPRPRPRPSLHPRP,0.0986
